Data taken from the RNAGym collection of RNA variant scans (doi:10.7554/elife.80360).

B1: HDV Ribozyme (parent)
chain: GGCCGGCAUGGUCCCAGCCUCCUCGCUGGCGCCGGCUGGGCAACAUUCCGAGGGGACCGUCCCCUCGGUAAUGGCGAAUGGGACCCA

Variants of: B1
Assay: self-cleavage, relative activity (ratio to wild type); higher = more cleavage; co-transcriptional

Row | Variant | self-cleavage
1 | G52A G55C | 0.923
2 | C4G U12C | 0.0665
3 | C24G A87U | 0.0902
4 | G68C G81C | 0.0594
5 | C4G G5U | 0.0545
6 | C49G G80A | 0.465
7 | A16G C19G | 0.151
8 | C22A A83U | 0.0678
9 | A8G C14A | 0.0791
10 | A16G A51G | 0.703
11 | C15G G67U | 0.475
12 | G2C G82U | 0
13 | G76C A87C | 1.08
14 | A16C A83C | 0.227
15 | A8U C26G | 1.03
16 | A16U | 0.984
17 | C18G A45U | 0.217
18 | C4U G53C | 0.782
19 | C21A G67U | 0.04
20 | A70G A83U | 0.511
21 | C61G A83C | 0.364
22 | U9C C84U | 0.415
23 | C48U C57U | 0.969
24 | G40U U60C | 0.723

Row | Variant | self-cleavage
25 | G6C G67C | 0.192
26 | C32U A70C | 0.68
27 | C36G C75U | 0.233
28 | A71U G81U | 0.185
29 | A71U G81C | 0.345
30 | G29C G35A | 0.104
31 | G31U A45U | 0.175
32 | G40C G52C | 0.0573
33 | A78U C86G | 0.163
34 | G50U C63A | 0.57
35 | A71G | 0.957
36 | A45C G81A | 0.0959
37 | C13U C26G | 0.831
38 | C4A G68C | 0.115
39 | G1A C13U | 0.119
40 | G2A G55C | 0.194
41 | G34C C75G | 0.131
42 | C14U G74A | 0.604
43 | G31C A45G | 0.293
44 | C19A G40U | 0.0437
45 | C22U A87G | 0.737
46 | C24U G67U | 0.372
47 | U46C C66U | 0.886
48 | G50U G81A | 0.609

Row | Variant | self-cleavage
49 | U27G C86A | 0.767
50 | A51U G68C | 0.554
51 | A43G A70U | 0.743
52 | C3A U69G | 0.567
53 | G40A C48U | 0.793
54 | G6U G11U | 0.0361
55 | A51G | 0.948
56 | G39C C63U | 0.369
57 | C36A A56G | 0.145
58 | C7A G31C | 1.03
59 | C75G A78G | 0.222
60 | C32G G39A | 0.157
61 | C41G G67C | 0.678
62 | G29U G52C | 0.0268
63 | U12A A56C | 0.262
64 | U79G A83G | 0.138
65 | G2U G54C | 0.0157
66 | C41U U60G | 1.1
67 | G10C C36G | 0.0831
68 | C36A C61U | 0.138
69 | C4G G34C | 0.782
70 | C33A A43U | 0.163
71 | C13A C48G | 0.138
72 | C44A G68U | 0.554

Row | Variant | self-cleavage
73 | G76U A78C | 0.219
74 | G39A C48G | 0.507
75 | C30G G76U | 0.109
76 | C15G C75A | 0
77 | G2C G5U | 0.145
78 | G53C C63G | 0.973
79 | C13U A43G | 0.525
80 | C15U U23G | 0.415
81 | C48U C61G | 0.855
82 | G29U G80A | 0.0934
83 | U65A A87G | 0.877
84 | G10C C86U | 1.03
85 | C41G G50U | 0.708
86 | C24U G29U | 0.0594
87 | G50A A70U | 1.05
88 | C4G C44G | 0.0449
89 | G28U A87C | 0.113
90 | U60G U79G | 0.831
91 | C48A C61U | 0.911
92 | G29C C41U | 0.0297
93 | C33A G67A | 0.273
94 | G6A G31C | 0.111
95 | A16C C48G | 0.437
96 | G39C G67U | 0.277

Row | Variant | self-cleavage
97 | U65C C75G | 0.482
98 | G10U G82A | 0.241
99 | G5C A78G | 0
100 | C44A G54A | 0.759
101 | C24A A51U | 0.747
102 | A43C C66U | 0.306
103 | U60C C75A | 0.237
104 | G6U U46C | 0.133
105 | U72G A87C | 0.709
106 | C48G G81U | 0.424
107 | U65A A71C | 0.767
108 | G2A A16C | 0.0733
109 | C14G A43U | 0.138
110 | G6A G82U | 0.188
111 | G2A C64G | 0.0923
112 | A16U G17C | 0.68
113 | C58U C61A | 1.21
114 | G31U C32G | 0.0978
115 | U60G G82U | 0.309
116 | C7A A16U | 0.499
117 | U37C G50U | 0.923
118 | A8C G67C | 0.623
119 | G82C C85G | 0.119
120 | A16G G82U | 0.237

Row | Variant | self-cleavage
121 | C66U G82C | 0.268
122 | C30A C41A | 0.429
123 | A16C A70U | 0.415
124 | G40A G80C | 0.161
125 | G40A G80A | 0.427
126 | A51G C75G | 0.128
127 | C14U U27A | 1.03
128 | C13A U37A | 0
129 | C64U C66G | 0.748
130 | C26G A87U | 0.976
131 | U37C C75U | 0.0997
132 | A42U G68U | 0.162
133 | C33G U46G | 0.208
134 | C19G G54A | 0.116
135 | G59C U72G | 0.675
136 | C7A A8U | 0.609
137 | G25U C84U | 0.262
138 | U37C G73C | 0.356
139 | C21G C48G | 0.115
140 | G67C G81C | 0.286
141 | U12C C15A | 0.482
142 | U60C C62U | 0.997
143 | G17A G81C | 0.204
144 | G10U C36U | 0.472

Row | Variant | self-cleavage
145 | A45U G59C | 0.969
146 | G1A G31A | 0.131
147 | C19A A70C | 0.0573
148 | U37G G50A | 0.113
149 | G2A G67A | 0.11
150 | C14U A16U | 1.09
151 | C58G G74C | 0.101
152 | G25A C63G | 0.237
153 | G1C U27G | 0.277
154 | U60G C85A | 0.767
155 | C3U A43U | 0.496
156 | C14U C22A | 0.339
157 | C4U G28U | 0.0277
158 | G1U A70C | 0.302
159 | A51C U65A | 1.04
160 | U20C U72G | 0.0723
161 | G10U A78C | 0.0499
162 | C61G A87G | 0.994
163 | G6U U23C | 0.312
164 | G67U C75G | 0.185
165 | G29A A70C | 0.0978
166 | A16G G52U | 1.07
167 | C64U C86G | 0.972
